Assay results published in publication PMC3637437.
“And” between values parts separate entries of the source, which are not always exact repeats. Equal entries are not always repeated.

How the values were obtained:
Experiment in all cases: native gel or EMSA; 1 ug of each purified consensus Env gp140 on a NativePAGE native gel, silver stained
[1] = molecular target: Con M Env gp140 trimer (HIV-1 group M consensus) (bacteriophage)
[2] = molecular target: Consensus A Env gp140 trimer (bacteriophage)
[3] = molecular target: Consensus B Env gp140 trimer (bacteriophage)
[4] = molecular target: Consensus C Env gp140 trimer (bacteriophage)
[5] = molecular target: Consensus E Env gp140 trimer (bacteriophage)

“Con M Env gp140 trimer (HIV-1 group M consensus)” was tested, and the stoichiometry N [1] was 3 and 2.

Substance Consensus A Env gp140 trimer has a stoichiometry N [2] of 3.

Consensus B Env gp140 trimer was tested, and the stoichiometry N [3] was 3.

For Consensus C Env gp140 trimer, the stoichiometry N [4] was 3 and 2.

With Consensus E Env gp140 trimer the stoichiometry N [5] was 3 and 2.
